From US20230235013A1 (MABSOLVE, published 2023)

Molecular target: T1, Histidine-tagged recombinant human FcγRI (CD64) (human, UniProt P12314 16-288)
T1 construct: bought; also called Sino Biological Cat. No. 12056-H08H
Assay: SPR, culture supernatant, captured His-FcγRI;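 note: biacore T200 SPR at 25 °C, anti-His capture, supernatants of HEK293 cells expressing IgG1 Fc variants injected 1 min, reference-subtracted response read 55 s after injection start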

| Mean binding response [RU] | Binder |
| --- | --- |
| 23.6 | anti-CD20 human IgG1 L234G/L235D/G236R (antibody, also called 1-48; copies: 2 + 2) heavy: QVQLQQPGAELVKPGASVKMSCKASGYTFTSYNMHWVKQTPGRGLEWIGAIYPGNGDTSYNQKFKGKATLTADKSSSTAYMQLSSLTSEDSAVYYCARSTYYGGDWYFNVWGAGTTVTVSSASTKGPSVFPLAPSSKSTSGGTAALGCLVKDYFPEPVTVSWNSGALTSGVHTFPAVLQSSGLYSLSSVVTVPSSSLGTQTYICNVNHKPSNTKVDKKVEPKSCDKTHTCPPCPAPEGDRGPSVFLFPPKPKDTLMISRTPEVTCVVVDVSHEDPEVKFNWYVDGVEVHNAKTKPREEQYNSTYRVVSVLTVLHQDWLNGKEYKCKVSNKALPAPIEKTISKAKGQPREPQVYTLPPSRDELTKNQVSLTCLVKGFYPSDIAVEWESNGQPENNYKTTPPVLDSDGSFFLYSKLTVDKSRWQQGNVFSCSVMHEALHNHYTQKSLSLSPGK light: QIVLSQSPAILSASPGEKVTMTCRASSSVSYIHWFQQKPGSSPKPWIYATSNLASGVPVRFSGSGSGTSYSLTISRVEAEDAATYYCQQWTSNPPTFGGGTKLEIKRTVAAPSVFIFPPSDEQLKSGTASVVCLLNNFYPREAKVQWKVDNALQSGNSQESVTEQDSKDSTYSLSSTLTLSKADYEKHKVYACEVTHQGLSSPVTKSFNRGEC |
| 29.5 | anti-CD20 human IgG1 L234G/L235G/G236R (antibody, also called 1-50; copies: 2 + 2) heavy: QVQLQQPGAELVKPGASVKMSCKASGYTFTSYNMHWVKQTPGRGLEWIGAIYPGNGDTSYNQKFKGKATLTADKSSSTAYMQLSSLTSEDSAVYYCARSTYYGGDWYFNVWGAGTTVTVSSASTKGPSVFPLAPSSKSTSGGTAALGCLVKDYFPEPVTVSWNSGALTSGVHTFPAVLQSSGLYSLSSVVTVPSSSLGTQTYICNVNHKPSNTKVDKKVEPKSCDKTHTCPPCPAPEGGRGPSVFLFPPKPKDTLMISRTPEVTCVVVDVSHEDPEVKFNWYVDGVEVHNAKTKPREEQYNSTYRVVSVLTVLHQDWLNGKEYKCKVSNKALPAPIEKTISKAKGQPREPQVYTLPPSRDELTKNQVSLTCLVKGFYPSDIAVEWESNGQPENNYKTTPPVLDSDGSFFLYSKLTVDKSRWQQGNVFSCSVMHEALHNHYTQKSLSLSPGK light: QIVLSQSPAILSASPGEKVTMTCRASSSVSYIHWFQQKPGSSPKPWIYATSNLASGVPVRFSGSGSGTSYSLTISRVEAEDAATYYCQQWTSNPPTFGGGTKLEIKRTVAAPSVFIFPPSDEQLKSGTASVVCLLNNFYPREAKVQWKVDNALQSGNSQESVTEQDSKDSTYSLSSTLTLSKADYEKHKVYACEVTHQGLSSPVTKSFNRGEC |
| 31.8 | anti-CD20 human IgG1 L234G/L235E/G236R (antibody, also called 1-49; copies: 2 + 2) heavy: QVQLQQPGAELVKPGASVKMSCKASGYTFTSYNMHWVKQTPGRGLEWIGAIYPGNGDTSYNQKFKGKATLTADKSSSTAYMQLSSLTSEDSAVYYCARSTYYGGDWYFNVWGAGTTVTVSSASTKGPSVFPLAPSSKSTSGGTAALGCLVKDYFPEPVTVSWNSGALTSGVHTFPAVLQSSGLYSLSSVVTVPSSSLGTQTYICNVNHKPSNTKVDKKVEPKSCDKTHTCPPCPAPEGERGPSVFLFPPKPKDTLMISRTPEVTCVVVDVSHEDPEVKFNWYVDGVEVHNAKTKPREEQYNSTYRVVSVLTVLHQDWLNGKEYKCKVSNKALPAPIEKTISKAKGQPREPQVYTLPPSRDELTKNQVSLTCLVKGFYPSDIAVEWESNGQPENNYKTTPPVLDSDGSFFLYSKLTVDKSRWQQGNVFSCSVMHEALHNHYTQKSLSLSPGK light: QIVLSQSPAILSASPGEKVTMTCRASSSVSYIHWFQQKPGSSPKPWIYATSNLASGVPVRFSGSGSGTSYSLTISRVEAEDAATYYCQQWTSNPPTFGGGTKLEIKRTVAAPSVFIFPPSDEQLKSGTASVVCLLNNFYPREAKVQWKVDNALQSGNSQESVTEQDSKDSTYSLSSTLTLSKADYEKHKVYACEVTHQGLSSPVTKSFNRGEC |
